Data reported in the RNAGym collection of RNA variant scans (doi:10.1073/pnas.2313332121).

B1: TPR t1 (parent)
chain: GACCAAUCUGCCCUCAGAGCUCGAGAACAUCUUCGGAUGCAGAGGAGGCAGGCUUCGGUGGCGCGAUAGCGCCAACGUCCUCAACCUCCAAUGCAUCCCACCACAUGAUGAUGCCUGAAGAGCCUUGGUUUUUUG

Variants of: B1
Assay: polymerase ribozyme fitness, log enrichment relative to wild type (log ratio); higher = more active; in vitro selection for triplet polymerase activity
Summary of the method: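 For each subunit of a heterodimeric triplet polymerase ribozyme, a mutant library was built by PCR and transcribed, then taken through a single in vitro selection round in triplicate. Selection involved annealing to a biotinylated primer, the partner subunit and triplets, incubation frozen at −7 °C, gel excision of extended constructs, capture on streptavidin beads and RT-PCR. Genotypes were retained after Illumina sequencing of inputs and outputs only with ≥10 input reads and ≥1 read in each output. Fitness is defined as the logarithm of a genotype's enrichment relative to wild-type enrichment, using inverse-variance-weighted averages across replicates, with the logarithm taken to base 2.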

Row | Variant | polymerase ribozyme fitness (log ratio)
1 | GACCAAUCUGUCGUCAGAGCUCGAGAACAUCUUCGGAUGCAGAGGAGGCAGGCUUCGGUGGCGCGAUAGCGCCAACGUCCUCAACCUCCAAUGCAUCCCACCACAUGAUGAUGACUGAAGAGCCUUGGUUUUUUG [C11U C13G C114A] | -4.11
2 | GGCCAAUCUGCCCUCAGAGCUCGAGAACAUCUUCGGAUGCAGAGUAGGCAGGCUUCGGUGGCGCGAUAGCGCCAACGUCCUCAACCUCCAAUGCAUCCCACCACAUGAUGAUGCCUGAAGAGCCUUGGUUUUUUG [A2G G45U] | -1.83
3 | GAACAAUCUGCCCUCAGAGCUCGAGAACAUCUUCGGAUGCAUAGGUGGCAGGCUUCGGUGGCGCGAUAGCGCAAACGUCCUCAACCUCCAAUGCAUCCCACCACAUGAUGAAGCCUGAAGAGCCUUGGUUUUUUG [C3A G42U A46U C73A U112A] | -2.77
4 | GACCAAUCUGCCCUCAGAGCUCGAGAACAUCUUCGGAUGCAGAGGAGGCAGGCUUCGGUGGCGCGAUAACGCCAACGUCCUUAACCUCCAAUGCAUCCCACCACAUGAUGAUGCCUGAAGAGCCUUGGUUUUUUG [G69A C82U] | -2.48
5 | GACCAAUCUGCCCUCAGUGCUCGAGAACAUCUUCGGAUGCAGAGGAGGCAGGCUUCGGUAGCGCGAUAGCGCCAACGUCCUCAACCUGCAAUGCAUCCCACCACAUGAUGAUGCCUGUAGAGCCUUGGUGUUUUG [A18U G60A C88G A118U U130G] | -3.95
6 | GACCAAUCUGCCCUCAGAGCUCGAGAACAUCUUCGGAUGCAAAGGAGGCAGGCUUCGGUGGCGCGAUAGCGCCAACGUCCUCAACCUCCAAUGCAUCCCACCACAUGAUGAUUCCUGAAGAGCCUUGGUUUUUUG [G42A G113U] | -3
7 | GACCUAUCUGCCCUCAGAGCCCGAGAACAUCUUCGGAUGCAGAGGAGGCAGGCUUCGGUGGCGCGAUAGCGGCAACGUCCUCAACCUCCAAUGCAUUCCACCACAUGAUGAUGCCUGAAGAGCCUUGGUUUUUUG [A5U U21C C72G C97U] | -1.7
8 | GACCAAUCUGCCCUCAGAGCUCGAGAACAUCUUCGGAUACAGAGGUGGCAGGCUUCGGUGGCGCGAUAGCGCCAACGUCCUCAACCACCAAUGCAUCCCACCACAAGAUGAUGCCUGAAGAGCCUUGGUUUUUUG [G39A A46U U87A U106A] | 0.825
9 | GACCAAUCUGCCCUCAGAGCUCGAGAACAUCUUCGGAUGCAGAGGAGGCAGGCUUCGGUGGCGCGAUAGCGCCAACGUCCUCAACCUCCAAUGCAUCCCAACACAUGAUGAAGCCUGAAGAGCCUUGGUUUUUUG [C101A U112A] | 0.611
10 | GACCAAUCUGCCCUCAGAGCUCGAGAACAUCUUCGGAUGCAGAGGAGGCAGGCUUCAGUGGCGCGAUAGCGCCAACGUCUUCAACCUCCAAUGCAUCCCACCACAUGAUGAUGCCUGAAGAGCCUUGGUUUUUUG [G57A C80U] | -1.38
11 | GACCAAUCUGCCCUCAGAGCUCGAGAACAUCUUCGGAUGCAGAGGAGGCAGGCUUCGGUGGCGCGAUAGCGCCAACAUCCCCAACCUCCAAUGCAUCCCACCACAUGAUGAUGCCUGAAGAGCCUUGGUUUUUUG [G77A U81C] | 0.0727
12 | GACCAAUCUGCCCUCAGAGCCCGAGAACAUCUUCGGAUGCAGAGGAGGCAGGCUUCGGUGGCGCGAUAGCGGCAACGUCCUCAACCUCCCAUGCAUCCCACCACAUGAUGAUGCCUGAAGAGCCUUGGUUUUUUG [U21C C72G A90C] | -1.98
13 | GACCAAUCUGCCCUCAGAGCUCGAGAACAUCUUCGGAUGCAGAGGAGGCAGGCAUCGGUGGCGCGAUAGCGCCAACGUCCUCAACCUCCAAUGCAACCCACCACAUGAUGAUCCCUGAAGAGUCUAGGUUUUUUG [U54A U96A G113C C123U U126A] | -4.27
14 | GACCAAUCUGCCCUCAGAGCUCGAGAACAUCUUCGGAGGCAGAGGAGGCAGGCUUCGGUGGCGCGAUAGCGCCAACACCCUCAACCUCCAAUGCAUCCCACCACAUGAUGAUGCCUGAAGAGCCAUGGUUUUUUG [U38G G77A U78C U125A] | -1.89
15 | GACCCAUCUGCCCUCAGAGCUCGAGAACAUCUUCGGAUGCAGAGGAGGCAGGCUUCGGUGGUGCGAUAGCGCCAACGUCCUCAACCUCCAAUGCAUCCCACCACAUGAUGAUGCAUGAAGAGCCUUGGUUUUUUG [A5C C62U C115A] | -1.14
16 | GACCAAGCUGCCCUCAGAGCUCGAGAACAUCUUCGGAUGCAGAGGAGGCAGGCUUCGGUGGCGCGAUAGCGCCAACGUCCUCAACCUCCAAUGCAUCCCACCACAUGAUGAUGCCUGAAGAGCCUUGGUUUUUUG [U7G] | 0.469
17 | GACCAAUCUGCCCUCAGAGCUCGAGAACAUCUUCGGAUGCAGAGGAGGCAGGCUUUGGUGGCGCGAUAGCGCCAACGUCCUCAACCUCCAAUGCAUCCCACCACAUGAUGAUGCCUGAAGAGCCUUUGUUUUUUG [C56U G127U] | -0.508
18 | GACCAAUCUGCCCUCAGAGCUCGAGAAUAUCUUCGGAUGCAGAGGAGGCAGCCUUCGGUGACGCGAUAGCGCCAACGUCCUCAACCUCCAAUGCAUCCCACCACAAGAUGAAGCCUGAAGAGCCUUGGUUUUUUG [C28U G52C G61A U106A U112A] | -1.95
19 | GACCAAUCUGCCCUCAGAGCUCGAGAACAUCUUCGGAGGCAGAGGAGGCAGGCUUCGGUGGCGCGAUAGCGCCAACGUCCUCAACCUCCAAUGCAACCCAUCACAUGAUGAUGCCUGAAGAGCCUUGGUUUUUUG [U38G U96A C101U] | -2.15
20 | GACCAAUCUGCCCUCAGAGCUCGAGAACAUCUUCGGAUCCAGAGGAGGCAGGCUUCGGUGGCGCGAUAGCGCCAACGUCCUCAACCUCCAAUGCAUCCCACCACAUGAUGAUGCUUGAAGAGCAUUGGUUUUUUG [G39C C115U C124A] | -0.672
21 | GACCAAUCUGCCCUCAGAGCUCGAGAACAUCUUCGGAUGCAGAGGAGGCAAGCUUCCGUGGCGCGAUAGCGCCAACGUCCUCAACCUCCAAUGCAUCCCACCACAUGAUGAGGCCUGAAGAGCCUUGGUUUUUUG [G51A G57C U112G] | -1.7
